Results published in patent US20180208648A1 (SCHOLAR ROCK, published 2018).
Substitutions are numbered along the chain they refer to. One block for each binder: values may come before it.

What was measured:
human proGDF11 [1] = biological target: T1, human proGDF11 (human, UniProt O95390 25-407, biotinylated (NHS-PEG4-Biotin), site not stated); assay: cell-based or functional assay
T1 sequence: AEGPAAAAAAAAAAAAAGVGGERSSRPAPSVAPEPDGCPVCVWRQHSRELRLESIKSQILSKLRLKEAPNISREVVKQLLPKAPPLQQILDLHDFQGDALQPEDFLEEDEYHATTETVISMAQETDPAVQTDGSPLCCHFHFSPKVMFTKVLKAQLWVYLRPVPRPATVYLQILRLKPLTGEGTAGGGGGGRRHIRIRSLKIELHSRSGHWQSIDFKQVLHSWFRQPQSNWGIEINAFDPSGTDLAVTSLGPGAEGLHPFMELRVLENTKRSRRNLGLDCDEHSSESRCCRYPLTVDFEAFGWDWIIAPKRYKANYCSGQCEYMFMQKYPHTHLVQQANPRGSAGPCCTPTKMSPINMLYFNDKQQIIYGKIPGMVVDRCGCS

human latent GDF11 = biological target: T2, human latent GDF11 (human, UniProt O95390 25-407, biotinylated, site not stated); assay: BLI (ForteBio Octet)
T2 construct: also called hu latent GDF11
T2 sequence: T1 sequence

human proGDF11 [2] = biological target: T1, human proGDF11; assay: BLI (ForteBio Octet)
human proGDF11 ARM8 = biological target: T3, human proGDF11 ARM8 (human, biotinylated, site not stated); assay: ELISA, biotinylated antigen on neutravidin plate
T3 construct: GDF11 having the GDF8 arm domain
T3 chain: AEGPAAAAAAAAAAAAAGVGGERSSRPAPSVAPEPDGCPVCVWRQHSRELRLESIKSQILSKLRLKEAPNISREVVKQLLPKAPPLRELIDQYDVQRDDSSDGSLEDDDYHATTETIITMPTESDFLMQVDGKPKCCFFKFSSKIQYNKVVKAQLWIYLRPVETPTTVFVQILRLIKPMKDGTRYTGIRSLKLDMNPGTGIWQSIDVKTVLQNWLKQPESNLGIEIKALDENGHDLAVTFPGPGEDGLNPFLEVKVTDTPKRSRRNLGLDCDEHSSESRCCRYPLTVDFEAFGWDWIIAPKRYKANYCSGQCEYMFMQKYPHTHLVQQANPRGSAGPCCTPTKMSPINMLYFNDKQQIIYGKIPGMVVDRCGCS
Source text: (§1) Candidate clones were converted to human IgG1 format. Full-length IgG antibodies were further characterized by ELISA for binding to the human and murine pro- and latent-forms of myostatin and GDF11. Antibodies were also screened for binding to the Myostatin prodomain (SEQ ID NO: 85), proTGFDβ1 (human and murine), the mature growth factor of Myostatin (SEQ ID NO: 89), the GDF11 mature growth factor (SEQ ID NO: 90), and proActivin A (SEQ ID NO: 84). Chimeric constructs which swapped portions of the prodomains of Myostatin and GDF11 were designed and produced. For example proGDF11 arm8 (SEQ ID NO: 112) refers to GDF11 having the GDF8 arm domain, and prodomain GDF11 arm8 (SEQ ID NO: 114) refers to the GDF11 prodomain having the GDF8 arm domain. These chimeric proteins were assayed for interaction with screening antibodies by ELISA and allowed for the assessment of binding of antibodies to the ARM or straight jacket portions of the GDF11 prodomain complex. Antibodies were selected based on their cross-reactivity with pro- and latent human and murine GDF11, with no interactions with GDF8, Activin, or TGFβ proteins. Activin A is a homodimer of inhibin-beta A subunits. For example, Inhibin-beta A can heterodimerize with other proteins to produce different Activin proteins.
(§2) Enzyme-linked immunosorbent assay (ELISA) analysis is carried out to assess antibody binding. 96-well ELISA assay plates are coated with neutravidin, a deglycosylated version of streptavidin with a more neutral pH. Target proteins are expressed with or without histidine (His) tags and subjected to biotinylation. Biotinylated target proteins are incubated with neutravidin-coated ELISA assay plates for two hours at room temperature and unbound proteins are removed by washing three times with wash buffer (either 25 mM Tris, 150 mM NaCl, 0.05% TWEEN®-20, or 20 mM Hepes pH 7.5, 500 mM NaCl, 0.05% TWEEN®-20). Primary antibodies being tested are added to each well and allowed to incubate at room temperature for 1 hour or more. Unbound antibody is then removed by washing three times with wash buffer. Secondary antibodies capable of binding to primary antibodies being tested and conjugated with detectable labels are then incubated in each well for 30 minutes at room temperature. Unbound secondary antibodies are removed by washing three times with wash buffer.

[3] = biological target: T4, human prodomain GDF11 ARM8 (human, biotinylated, site not stated); assay: ELISA, biotinylated antigen on neutravidin plate
T4 construct: GDF11 prodomain having the GDF8 arm domain; also called human GDF11 ARM8 prodomain
T4 chain: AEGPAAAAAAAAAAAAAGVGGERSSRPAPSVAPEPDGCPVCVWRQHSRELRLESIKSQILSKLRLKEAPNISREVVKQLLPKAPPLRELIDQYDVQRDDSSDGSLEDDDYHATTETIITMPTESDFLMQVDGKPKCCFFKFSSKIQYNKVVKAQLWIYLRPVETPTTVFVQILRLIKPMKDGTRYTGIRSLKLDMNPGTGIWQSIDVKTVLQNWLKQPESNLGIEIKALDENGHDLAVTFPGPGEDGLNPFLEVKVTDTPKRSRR
Source text: as §1, §2

human mature GDF11 = biological target: T5, human mature GDF11 (human, UniProt O95390 299-407, biotinylated, site not stated); assay: ELISA, biotinylated antigen on neutravidin plate
T5 construct: Growth factor domain; also called GDF11 mature growth factor
T5 sequence: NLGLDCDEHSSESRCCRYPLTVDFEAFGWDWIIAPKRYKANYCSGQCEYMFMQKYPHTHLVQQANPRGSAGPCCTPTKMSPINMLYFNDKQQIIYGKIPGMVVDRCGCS
Source text: as §1, §2

human proGDF8 = biological target: T6, human proGDF8 (human, UniProt O14793 24-375, biotinylated, site not stated); assay: BLI (ForteBio Octet QKe), antigen on streptavidin biosensor, antibody in solution
T6 construct: also called hu proGDF8; human proMyostatin
T6 sequence: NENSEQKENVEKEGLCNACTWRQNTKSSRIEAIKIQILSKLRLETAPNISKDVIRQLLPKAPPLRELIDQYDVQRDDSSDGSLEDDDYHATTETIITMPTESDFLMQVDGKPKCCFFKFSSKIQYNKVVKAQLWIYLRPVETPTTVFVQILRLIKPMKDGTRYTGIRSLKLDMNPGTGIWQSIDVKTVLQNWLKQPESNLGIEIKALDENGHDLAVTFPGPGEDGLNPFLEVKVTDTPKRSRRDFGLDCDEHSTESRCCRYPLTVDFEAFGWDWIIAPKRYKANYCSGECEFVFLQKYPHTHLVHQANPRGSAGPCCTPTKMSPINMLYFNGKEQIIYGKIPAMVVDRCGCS

EC50, proGDF11 activation assay at 50 nM proGDF11 (human proGDF11 [1]): 27.5 nM
Kd (human latent GDF11): 0.27 nM
Kd (human proGDF11 [2]): 0.91 nM
binding result (human proGDF11 ARM8): no binding
binding result [3]: no binding
binding result (human mature GDF11): no binding
binding result (human proGDF8): no binding (tested: 50 µg/mL)
B1: GDF11 Inh-2 (antibody, V domains shown)
VH: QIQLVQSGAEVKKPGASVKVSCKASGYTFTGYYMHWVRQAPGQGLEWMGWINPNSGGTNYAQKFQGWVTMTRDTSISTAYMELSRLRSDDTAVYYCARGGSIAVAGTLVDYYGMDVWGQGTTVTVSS
VL: DIQMTQSPSSLSASVGDRVTITCQASQDISNYLNWYQQKPGKAPKLLIYDASNLETGVPSRFSGSGSGTDFTLTISSLQPEDVATYYCQKYSTAPLTFGGGTKVEIKR
notes: also called Clone GDF11 Inh-2

EC50, proGDF11 activation assay at 50 nM proGDF11 (human proGDF11 [1]): 26.7 nM
Kd (human latent GDF11): 0.31 nM
Kd (human proGDF11 [2]): 1.08 nM
binding result (human proGDF11 ARM8): no binding
binding result [3]: no binding
binding result (human mature GDF11): no binding
binding result (human proGDF8): no binding (tested: 50 µg/mL)
B2: GDF11 Inh-4 (antibody, V domains shown)
VH: QVQLVQSGAEVKKPGASVKVSCKASGYTFTSYGISWVRQAPGQGLEWMGWISAYNGNTNYAQKLQGRVTMTTDTSTSTAYMELRSLRSDDTAVYYCARTPPLWFGEYGAFDIWGQGAMVTVSS
VL: B1 VL with E81D, V83F, K90Q, Y91S, S92Y, A94T, L96I, G100Q, K103R, V104L
notes: also called Clone GDF11 Inh-4
